US20110045003A1 (SYNOVEX, published 2011)
Where a chain is given by its changes, count along the chain named. In names and notes the source's numbering stands. Values belong to the binder of their own block, whether it stands above or below them.

Tests used:
[1] = target: T1, recombinant his-tagged human Cad-11 (R&D Systems) (human, UniProt P55287 54-617); assay: SPR, rhCad-11 immobilized, SDP051 as analyte, 2 state reaction model
T1 construct: also called rhCad-11; recombinant human Cad-11; not shown: his tag
T1 sequence: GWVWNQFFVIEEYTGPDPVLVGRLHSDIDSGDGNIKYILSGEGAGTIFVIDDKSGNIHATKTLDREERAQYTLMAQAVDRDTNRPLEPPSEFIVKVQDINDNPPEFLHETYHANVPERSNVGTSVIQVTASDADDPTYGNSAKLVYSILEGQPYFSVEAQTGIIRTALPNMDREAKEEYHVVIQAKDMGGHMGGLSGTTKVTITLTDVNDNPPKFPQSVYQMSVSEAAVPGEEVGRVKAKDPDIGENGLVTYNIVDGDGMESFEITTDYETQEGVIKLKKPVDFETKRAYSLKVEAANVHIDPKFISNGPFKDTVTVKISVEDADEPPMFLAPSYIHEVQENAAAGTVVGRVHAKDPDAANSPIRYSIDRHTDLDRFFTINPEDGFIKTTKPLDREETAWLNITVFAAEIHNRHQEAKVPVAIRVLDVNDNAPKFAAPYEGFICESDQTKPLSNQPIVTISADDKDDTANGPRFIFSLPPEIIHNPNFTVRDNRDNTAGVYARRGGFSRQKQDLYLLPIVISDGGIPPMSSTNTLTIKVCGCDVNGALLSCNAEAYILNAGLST
Description: (§1) To determine the affinity of SDP051 for recombinant his-tagged human Cad-11, rhCad-11 (R&D Systems) was immobilized to the chip at a single concentration, high resolution kinetics were determined for SDP051, and a 2-state reaction binding model was successfully fitted to the kinetic data.
(§2) Kinetic data were obtained at a flow rate of 40 μL/min to minimize any potential mass transfer effects. An analyte concentration series ranging from 12.5 nM to 0.195 nM was prepared by serial dilution. Two repeats of the blank (no mAb) and the 3.125 nM (first and last cycle) concentration of the analyte were programmed into the kinetic runs in order to check the stability of both the surface and analyte over the kinetic cycles. The SDP051 was injected over the Fcs for 360 seconds, long enough to observe the curvature in association phase.
(§3) As rhCad-11 is homodimeric and therefore contained two identical binding epitopes, it is likely that individual mAb molecules become bound sequentially through a first binding site and then both binding sites.

[2] = target: T1, recombinant his-tagged human Cad-11 …; assay: SPR, rhCad-11 immobilized, SDP051 as analyte, 2 state reaction model (kd1)
Description: as §1, §2, §3

[3] = target: T2, recombinant Cad-11 EC1 human IgG1 fusion protein (R&D Systems Cat. No. 1790-CA-050) (human, UniProt P55287 54-617, limits assumed); assay: competition ELISA on coated recombinant human Cad-11 EC1 fusion; competitor biotinylated SYN0012/H1M1 at 0.1 µg/ml
T2 construct: Bought protein; the catalogue product may hold more of the extracellular region; also called recombinant human Cad-11 EC1; recombinant human Cad-11 fusion protein; not shown: human IgG1 part of the bought fusion protein
T2 sequence: T1 sequence
Description: The binding of the purified humanized composite variant antibodies (SDP011 to SDP151) to a recombinant Cad-11 EC1 human IgG1 fusion protein was assessed in a competition binding ELISA. A dilution series from 5 μg/ml to 0.0022 μg/ml of the humanized or control (SYN0012/H1M1) antibodies was premixed with a constant concentration of biotinylated murine anti-Cad-11 antibody, SYN0012/H1M1 (0.1 μg/ml, final concentration), before incubating for 1 hour at room temperature on a Nunc Immuno MaxiSorp 96 well flat bottom microtitre plate (Fisher Cat. No. DIS-971-030J) pre-coated with 0.25 μg/ml recombinant human Cad-11 EC1 (R&D Systems Cat. No. 1790-CA-050) diluted in PBS. The binding of the biotinylated mAb was detected with streptavidin-HRP (Sigma Cat. No. 55512) and tetramethylbenzidine (TMB) substrate (Invitrogen Cat. No. 00-2023).
The relative IC50 was calculated by dividing the value for the test antibody by that of SYN0012. Antibody expression levels given are for static cultures in T flasks. PI are calculated.

[4] = target: T3, Peptide 1 (amino acids G1-P18 of the Cad-11 EC1 domain) (human); assay: ELISA on coated peptide or protein, antibody at one dilution, goat anti-mouse IgG, TMB, OD450
T3 construct: Range counted on the EC1 domain; also called PEP1
T3 peptide: GWVWNQFFVIEEYTGPDP
Description: (§4) To determine the epitope within the Cad-11 EC1 domain that the Peptide 4 Cad-11 EC1 antibodies H1M1 and H14 bind, four different peptides spanning the first 37 amino acids of the EC1 region (see FIG. 22) were immobilized in an ELISA format and the ability of the H1M1 and H14 antibodies to bind each of the four peptides was determined. 96-well Reactibind plates were coated overnight at 4° C. with 0.3 ng/well of Peptide 1 (amino acids G1-P18 of the Cad-11 EC1 domain), 0.3 ng/well of Peptide 2 (amino acids G15-N34 of the Cad-11 EC1 domain), 0.3 ng/well of Peptide 3 (amino acids V19-Y37 of the Cad-11 EC1 domain), 0.3 ng/well of the immunogen Peptide 4 (amino acids G1-G33 of the Cad-11 EC1 domain), 20 ng of a fusion protein including the entire EC1 domain (EFL), or 20 ng of control human Ig (Fc-block). The wells were washed twice with PBS-Tween (0.05%), blocked with casein in dH₂0 for 3 hrs at 22° C. and then washed again twice with PBS-Tween (0.05%). Various dilutions of the different Peptide 4 Cad-11 EC1 domain antibodies were transferred to the peptide- or protein-coated wells, incubated for 45 min at 22° C. and then washed twice with PBS-Tween (0.05%). 100 μl of a 1/1000 dilution of goat anti-mouse IgG secondary antibody (Jackson ImmunoResearch, West Grove, Pa.) were added to each well, incubated for 30 min at 22° C. and then washed twice with PBS-Tween (0.05%). 100 μl/well of room temperature TMB reagent was added to each well and color was allowed to develop for 5 min at 22° C.

[5] = target: T4, Peptide 2 (amino acids G15-N34 of the Cad-11 EC1 domain) (human); assay: as above
T4 construct: Range counted on the EC1 domain; also called PEP2
T4 peptide: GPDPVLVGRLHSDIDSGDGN
Description: as §4

[6] = target: T5, Peptide 3 (amino acids V19-Y37 of the human Cad-11 EC1 domain) (human); assay: as above
T5 construct: also called PEP3; peptide V19-Y37
T5 peptide: VLVGRLHSDIDSGDGNIKY
Description: as §4

Kd [1]: 0.379 nM
koff [2]: 0.0043 s⁻¹
relative IC50 (IC50 of the test antibody divided by that of SYN0012) [3]: 0.99 ratio (column head prints µg/mL)
B1: humanized anti-Cad-11 EC1 antibody SDP051 (Vκ1/VH5) (antibody, IgG4, V domains shown)
VH: EVQLVQSGAEVKKPGASVKVSCKASGYSFTGYFMNWVRQAPGQGLEWIGRINPYTGDTFYNQKFKGRVTITVDKSTSTAYMELSSLRSEDTAVYYCGRLGSRYWYFDVWGQGTTVTVSS
VL: DVLMTQTPLSSPVTLGQPASISCRSSQSIIHSNGNTYLEWYLQKPGQSPQLLIYKVSNRFSGVPDRFTGSGSGTDFTLKISRVEAEDVGVYYCFQGSHVPWTFGQGTKLEIK
notes: humanized IgG4 (S241P), kappa

binding result [4]: no binding
binding result [5]: binds
binding result [6]: no binding
B2: murine H1M1 monoclonal anti-Cad-11 EC1 antibody (hybridoma H1M1, ATCC PTA-9699) (antibody, V domains shown)
VH: EVQLQQSGPELVKPGASVKISCKASGYSFTGYFMNWVKQSHGKSLEWIGRINPYTGDTFYNQKFKGKATLTVDKSSSTAHMELLSLSSEDSAVYYCGRLGSRYWYFDVWGAGTTVTVSS
VL: B1 VL with S11L, T14S, Q17D, P18Q, Q50K, V88L, Q105G
modifications: Biotinylated when used as the labelled competitor in Example 14; the letters are unchanged.
notes: murine antibody raised against Peptide 4; also called SYN0012; SYN0012/H1M1
